Reference: IntAct's records for PubMed 25278935

B1: HPr kinase/phosphorylase (Bacillus subtilis), O34483 (parent)
chain: MAKVRTKDVMEQFNLELISGEEGINRPITMSDLSRPGIEIAGYFTYYPRERVQLLGKTELSFFEQLPEEEKKQRMDSLCTDVTPAIILSRDMPIPQELIDASEKNGVPVLRSPLKTTRLSSRLTNFLESRLAPTTAIHGVLVDIYGVGVLITGKSGVGKSETALELVKRGHRLVADDCVEIRQEDQDTLVGNAPELIEHLLEIRGLGIINVMTLFGAGAVRSNKRITIVMNLELWEQGKQYDRLGLEEETMKIIDTEITKLTIPVRPGRNLAVIIEVAAMNFRLKRMGLNAAEQFTNKLADVIEDGEQEE
partner: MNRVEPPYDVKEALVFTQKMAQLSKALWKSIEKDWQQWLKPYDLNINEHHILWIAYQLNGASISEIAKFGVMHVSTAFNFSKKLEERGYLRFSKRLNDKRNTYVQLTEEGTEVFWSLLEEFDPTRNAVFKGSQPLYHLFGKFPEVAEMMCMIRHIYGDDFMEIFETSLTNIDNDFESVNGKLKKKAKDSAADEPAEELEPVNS
B2: Anti-sigma F factor (Bacillus subtilis), P10728 (parent)
chain: MKNEMHLEFSALSQNESFARVTVASFIAQLDPTMDELTEIKTVVSEAVTNAIIHGYEENCEGKVYISVTLEDHVVYMTIRDEGLGITDLEEARQPLFTTKPELERSGMGFTIMENFMDDVSIDSSPEMGTTIRLTKHLSKSKALCN
partner: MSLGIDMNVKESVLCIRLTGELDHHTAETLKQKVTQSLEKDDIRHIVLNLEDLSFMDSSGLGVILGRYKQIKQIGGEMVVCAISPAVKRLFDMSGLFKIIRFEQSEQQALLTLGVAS
B3: Serine/threonine-protein kinase RsbT (Bacillus subtilis), P42411 (parent)
chain: MNDQSCVRIMTEWDIVAARQLGRNVAKELGFGTVDQARITTAISELARNIYLYAGKGQIGIEQVADRGKKGLKIIAEDQGPGIPDIRKVMEDGFSTSGGLGAGLPGVKRLMDEFSLNSVAGEGTEIQAIKWLR
partner: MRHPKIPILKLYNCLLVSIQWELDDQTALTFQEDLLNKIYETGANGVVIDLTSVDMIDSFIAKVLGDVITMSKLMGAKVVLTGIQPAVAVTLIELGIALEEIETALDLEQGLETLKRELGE
B4: Tyrosine-protein kinase YwqD (Bacillus subtilis), P96716 (parent)
chain: MALRKNRGSRMQRNVIAMTEPKSLNSEQYRTIRTNIEFASVDRQMKSVMITSACPGEGKSTTAANLAVVFAQQGKKVLLIDADLRKPTVHTAFFLENTVGLTSVLLKKSSMEQAVQASNEKHLDVLTSGPIPPNPAELLSSKWMKELAYEACAAYDMVIFDTPPILAVADAQILGNVADGSVLVISSGKTEKEQAAKAKEALATCKSKLLGAIMNGKKLSKHSEYGYYGTKDNFMQK
partner: B3 chain

Variants of: B1
Settings: with hpr_bacsu hpr

effect of a mutation on the interaction | Variant
disrupting interaction strength | Q53M

Variants of: B2
Settings: with sp2aa_bacsu spoIIAA

effect of a mutation on the interaction | Variant
disrupting interaction strength | N50A

Variants of: B3
Settings: with rsbs_bacsu rsbS

effect of a mutation on the interaction | Variant
disrupting interaction strength | N49A

Variants of: B4
Settings: with rsbt_bacsu rsbT

effect of a mutation on the interaction | Variant
increasing interaction strength | D81A
